Experimental data: IntAct's records for PubMed 22821967

B1: Uncharacterized protein YpfA (Bacillus subtilis), P38491 (parent)
chain: MIEIGENVLLEYIEENELKKAKSKAVSIENNELLIAYPVDVVTGRTVILHNDMEVTVEFVGKDEVPYRFISRIKGKVKDKLQMICLEMPPREKMKRIQRRQYVRTDAVLDVQIQPGNEEEIRTLSYNISAGGIAVVLADGLSFQSGESLRLIIRLPEEEHTRQIETEAVVRRIFNDPKSEKRKMTLEYSEIAAGDQQALLQYCIRRQLNKRRKARME
partner: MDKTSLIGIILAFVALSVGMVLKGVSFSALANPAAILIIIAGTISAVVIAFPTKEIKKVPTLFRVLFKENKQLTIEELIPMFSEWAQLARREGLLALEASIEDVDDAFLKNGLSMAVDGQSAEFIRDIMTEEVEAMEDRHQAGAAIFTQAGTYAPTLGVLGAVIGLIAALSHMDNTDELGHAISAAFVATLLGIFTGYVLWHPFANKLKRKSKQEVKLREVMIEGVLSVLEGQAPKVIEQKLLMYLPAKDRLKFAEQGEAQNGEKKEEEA

Variants of: B1
Conditions: with mota_bacsu motA

Effect of a mutation on the interaction, disrupting interaction:
MIEIGENVLLEYIEENELKKAKSKAVSIENNELLIAYPVDVVTGRTVILHNDMEVTVEFVGKDEVPYRFISRIKGKVKDKLQMICLEMPPREKMKRIQRRQYVRTDAVLDVQIQPGNEEEIRTLSYNISAGAIAVVLADGLSFQSGESLRLIIRLPEEEHTRQIETEAVVRRIFNDPKSEKRKMTLEYSEIAAGDQQALLQYCIRRQLNKRRKARME [G132A]
MIEIGENVLLEYIEENELKKAKSKAVSIENNELLIAYPVDVVTGRTVILHNDMEVTVEFVGKDEVPYRFISRIKGKVKDKLQMICLEMPPREKMKRIQRFQYVRTDAVLDVQIQPGNEEEIRTLSYNISAGGIAVVLADGLSFQSGESLRLIIRLPEEEHTRQIETEAVVRRIFNDPKSEKRKMTLEYSEIAAGDQQALLQYCIRRQLNKRRKARME [R100F]
MIEIGENVLLEYIEENELKKAKSKAVSIENNELLIAYPVDVVTGRTVILHNDMEVTVEFVGKDEVPYRFISRIKGKVKDKLQMICLEMPPREKMKRIQRRQYVDTDAVLDVQIQPGNEEEIRTLSYNISAGGIAVVLADGLSFQSGESLRLIIRLPEEEHTRQIETEAVVRRIFNDPKSEKRKMTLEYSEIAAGDQQALLQYCIRRQLNKRRKARME [R104D]
MIEIGENVLLEYIEENELKKAKSKAVSIENNELLIAYPVDVVTGRTVILHNDMEVTVEFVGKDEVPYRFISRIKGKVKDKLQMICLEMPPREKMKRIQRRQYVRTDAVLDVQIQPGNEEEIRTLSYAISAGGIAVVLADGLSFQSGESLRLIIRLPEEEHTRQIETEAVVRRIFNDPKSEKRKMTLEYSEIAAGDQQALLQYCIRRQLNKRRKARME [N127A]
